Measurements: PMC4300558 (Cell Communication and Signaling : CCS, 2015)
Read-outs that look alike come from different tables or passages of the source. Values belong to the molecule of their own block, whether it stands above or below them.

Columns and labels:
[1] = molecular target: prolactin receptor (Homo sapiens) (UniProt P16471); conditions: cited from earlier work
[2] = molecular target: prolactin receptor (Homo sapiens) (UniProt P16471); conditions: cited from earlier work; remark: listed apart in the source
[3] = molecular target: T1, extracellular domain of the human prolactin receptor (human, UniProt P16471 25-234, biotin (site not stated; in the phage ELISA)); assay: ELISA; competition with phage-displayed sAB A10
T1 chain: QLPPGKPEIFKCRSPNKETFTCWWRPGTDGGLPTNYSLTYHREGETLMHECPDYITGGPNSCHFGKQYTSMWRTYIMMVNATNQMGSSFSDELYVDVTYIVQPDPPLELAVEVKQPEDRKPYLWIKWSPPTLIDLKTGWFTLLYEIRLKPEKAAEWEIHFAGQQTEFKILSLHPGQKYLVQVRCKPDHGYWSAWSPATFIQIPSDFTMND

[4] = molecular target: T1, extracellular domain of the human …; assay: ELISA; competition with phage-displayed sAB A8
[5] = molecular target: T1, extracellular domain of the human …; assay: ELISA; competition with phage-displayed sAB A9
[6] = molecular target: T2, extracellular domain of the human prolactin receptor (human, UniProt P16471 25-234, biotin (site not stated; in the phage ELISA)); assay: ELISA; competition phage ELISA; biotinylated receptor immobilised on streptavidin plates; hGH or PRL titrated against phage-displayed sAB; conditions: both partners purified
T2 construct: prolactin receptor, human, extracellular domain (two tandem fibronectin domains FN1 and FN2); No methods in the main text; also called hPRL-R; hPRL-R ECD
T2 sequence (looked up): T1 chain

[7] = molecular target: T3, extracellular domain of the human prolactin receptor (human, UniProt P16471, biotin (site not stated; in the phage ELISA)); assay: SPR; Biacore 2000; dissociation constant calculated from the on and off rates; conditions: both partners purified
T3 construct: prolactin receptor, human, extracellular domain (two tandem fibronectin domains FN1 and FN2); No methods in the main text; also called hPRL-R; hPRL-R ECD

- IC50 [3]: 9 nM
- IC50 [4]: 11 nM
- IC50 [5]: 13 nM
- binding result [6]: binds
B1: human prolactin (ligand, UniProt P01236 29-227, looked up)
chain: LPICPGGAARCQVTLRDLFDRAVVLSHYIHNLSSEMFSEFDKRYTHGRGFITKAINSCHTSSLATPEDKEQAQQMNQKDFLSLIVSILRSWNEPLYHLVTEVRGMQEAPEAILSKAVEIEEQTKRLLEGMELIVSQVHPETKENEIYPVWSGLPSLQMADEESRLSAYYNLLHCLRRDSHKIDNYLKLLKCRIIHNNNC
notes: prolactin, human; Labelled with cy5 in the internalization experiment; also called hPRL; PRL

- Kd [7]: 5.6 nM
- koff [7]: 0.00054 s⁻¹
- kon [7]: 96000 M⁻¹ s⁻¹
B2: synthetic antibody (sAB) A8 (Fab, V domains shown)
VH: EVQLVESGGGLVQPGGSLRLSCAASGFNFSSSSMHWVRQAPGQGLEWVAYISPYYGSTSYADSVKGRFTISADTSKNTAYLQMNSLRAEDTAVYYCARSYGYVYWNAYSSGMDYWGQGTLVTVSS
VL: DIQMTQSPSSLSASVGDRVTITCRASQSVSSAVAWYQQKPGKAPKLLIYSASSLYSGVPSRFSGSRSGTDFTLTISSLQPEDFATYYCQQYYSYYYPFTFGQGTKVEIK
notes: Fab scaffold before loop H1; heavy chain loop 1 (H1), randomized loop; Fab scaffold between H1 and H2; heavy chain loop 2 (H2), randomized loop; Fab scaffold between H2 and H3; heavy chain loop 3 (H3), randomized loop; Fab scaffold after H3 (rest of VH and CH1); Fab scaffold before loop L3; light chain loop 3 (L3), randomized loop; Fab scaffold after L3 (rest of VL and CL); Only the four …

More lines, now with the values behind:

Molecule: growth hormone (from UniProt P01241)
- Kd [1]: 1 nM

Molecule: prolactin (from UniProt P01236)
- Kd [2]: 6 nM
